Results reported in article PMC6391921.

Key:
Test in all cases: BLI
[1] = target: H7ssF_J, H7 stabilized HA stem ferritin nanoparticle, design J (influenza A virus A/Shanghai/2/2013 (H7N9) | not stated) (UniProt Q9ZLI1)
[2] = target: H7ssF_I, H7 stabilized HA stem ferritin nanoparticle, design I (influenza A virus A/Shanghai/2/2013 (H7N9) | not stated) (UniProt Q9ZLI1)
[3] = target: H7ssF_E, H7 stabilized HA stem ferritin nanoparticle, design E (influenza A virus A/Shanghai/2/2013 (H7N9) | not stated) (UniProt Q9ZLI1)
[4] = target: H7ssF_C, H7 stabilized HA stem ferritin nanoparticle, design C (influenza A virus A/Shanghai/2/2013 (H7N9) | not stated) (UniProt Q9ZLI1)
[5] = target: H7ssF_D, H7 stabilized HA stem ferritin nanoparticle, design D (influenza A virus A/Shanghai/2/2013 (H7N9) | not stated) (UniProt Q9ZLI1)
[6] = target: H7ssF_B, H7 stabilized HA stem ferritin nanoparticle, design B (influenza A virus A/Shanghai/2/2013 (H7N9) | not stated) (UniProt Q9ZLI1)
[7] = target: H7ssF_F, H7 stabilized HA stem ferritin nanoparticle, design F (influenza A virus A/Shanghai/2/2013 (H7N9) | not stated) (UniProt Q9ZLI1)

Q: CT149 Fab was tested. Which Kd [1] did it give?
A: 9.8 nM

Q: What about the koff [1] of the same substance?
A: 0.0034 s⁻¹

Q: What about the kon [1] of the same substance?
A: 350000 M⁻¹ s⁻¹

Q: What about the Kd [2] of the same substance?
A: 7.2 nM

Q: What about the koff [2] of the same substance?
A: 0.0029 s⁻¹

Q: And the kon [2]?
A: 410000 M⁻¹ s⁻¹

Q: What about the Kd [3] of the same substance?
A: 8.2 nM

Q: What about the koff [3] of the same substance?
A: 0.003 s⁻¹

Q: And the kon [3]?
A: 370000 M⁻¹ s⁻¹

Q: And the Kd [4]?
A: 0.9 nM

Q: What about the koff [4] of the same substance?
A: 0.00053 s⁻¹

Q: And the kon [4]?
A: 600000 M⁻¹ s⁻¹

Q: What about the Kd [5] of the same substance?
A: 9 nM

Q: What about the koff [5] of the same substance?
A: 0.0033 s⁻¹

Q: And the kon [5]?
A: 370000 M⁻¹ s⁻¹

Q: What about the Kd [6] of the same substance?
A: 7 nM

Q: What about the koff [6] of the same substance?
A: 0.003 s⁻¹

Q: What about the kon [6] of the same substance?
A: 420000 M⁻¹ s⁻¹

Q: What about the Kd [7] of the same substance?
A: 2.7 nM

Q: What about the koff [7] of the same substance?
A: 0.0018 s⁻¹

Q: What about the kon [7] of the same substance?
A: 670000 M⁻¹ s⁻¹
